Data reported in the supplement of paper PMC9170038.

system: K4 kissing-loop RNA reporter; test: apparent KD of K4 kissing-loop reporter; higher = weaker reporter binding; conditions: Eterna round: R107; input ligand: theophylline 20 uM
Procedure: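 RNA-MaP round R107: designed RNA switches with theophylline, tryptophan, arginine or FMN aptamers are transcribed on-chip within common flanks. They are titrated with a labelled K4 kissing-loop RNA reporter in RNA-MaP buffer (100 mM Tris pH 7.5, 80 mM KCl, 4 mM MgCl2), without ligand or with the indicated ligand. Median apparent KD per design.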
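Also: bound reporter read as fluorescence of individual clusters on recovered sequencing chips by microscopy, with normalized cluster intensities fitted with a binding model.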

| Sequence | apparent KD of K4 kissing-loop reporter |
| --- | --- |
| UGUCAUGGAAACAUGAACGUUGAUGUUCGACGAGGACCGGUACGGCCGCCACUCGAGUAAUAGUCAGUGAUGUUGACUUGUUUAA [KL-SSTryp-A form1 sub4] | 90.9 nM |
| AAUAAAAUCACGGCCGCCACUGAUGUUAAUAUUAGCAGUGAUGUUGCUAUGUCGUUUUUAUUUAACAGGACCGGGUGAAUAUUUA [JR_ExcTryptoB_Sub013] | 188 nM |
| UUUCUACCGGGAAGGAGCGUGAAUGAUAAUGGAUAUAGUGAUGUUAUAUAUACGAACGAAUCGCAGGUAGGUCGCCCGGAUCCCU [SSArgB.V] | 549 nM |
| AUUUGCUAGAAAGGAUAUAUUAGCUUGGUCACCGCGUCCGAUGGUUAAACUUCGUGAGUGAUGUUCAUAGAAGGUUCAGCCUCGA [theeternabot_exclusion_KL_FMN_B_20] | 138 nM |
| CUACUGAGUGAUGUUCAACAUAAUGUCGAUACCAGCACAUUUGCCUGCCCUUGGCAGCGACGCACCAGGACCUGAGAGUACUGGU [theeternabot_sameState_KL_Theo_A_13] | 612 nM |
| CCAUCGCUAUUCGAUACCAGCUCCUUAGUGAUGUUGAGGUUUUACCCACUGUAGGUGGGAAGCCCUUGGCAGCGAAUAGUGAUGG [Theophylline B K4 29] | 480 nM |
| CUUCGUAAAGGCCCAGUGAUGUUGGGCACUCGAGGACCGGUACGGCCGCCACUCGCUCCCUAAGUCGCGUGCGUGGGCCACCGCC [Anala] | 94.5 nM |
| UGACUGGACUGAAGGAGCGCUUAACUCCUAGUGAUGUUAGGGAAACGAGACAAAGUCUCGAAGCAGGUAGGUCGCAGUCUAGUCU | 211 nM |
| AAAAUAAAAGGUCACCCAGUGAUGUUGGAAGGAGCGUGCGAAAGCACAGGUAGGUCGCCAACCUAAAAGUGACCAGGGAAACCCA [#SwitchBubble 7 #K4Early] | 183 nM |
| UCACUUAAAAGAAAUAGAAAUUCUAGAGAUACCAGCGACACUCUUCGCCCUUGGCAGCUCAAGUGGGACCCAGUGAUGUUGGGCG [Xeceteza] | 269 nM |
| CUGACGCUGAUACGGUGGCCGGUGGUCGUGCGAGGACCGGUACGGCCGCCACUCGCAUGAGUGAUGUUCAUGUGUCGUCGUCGUC [#05 K4 Tryptophan A Exclusion] | 90.2 nM |

same assay, conditions: Eterna round: R107; input ligand: tryptophan 2.4 mM

| Sequence | apparent KD of K4 kissing-loop reporter |
| --- | --- |
| UGGAGUUGACGAAAAGUCAACUCCCGAGAAGGAGCGGACGAAAGUCCAGGUAGGUCGCUCGCUACCAGUGAUGUUGGUACUUUAA | 147 nM |
| AUCGUUGUCUGAGGAUAUCGGUUAACUGUAGUGAUGUUACAGAAAAUUCAUAUUAUAUUUUCUAUUCGAGAAGGCAGACUACGUA [JR_Nu3_ExcFMNB_Sub019] | 157 nM |
| CGUUGGAGUGAUGUUCCAGGUUGUACGGAUACCAGCCAAGCCAGCGGCCCUUGGCAGCCGACUAUUGCAGUGAUGUUGUGAUGCC [Same State Theophylline A GF 3] | 524 nM |
| AUUCAGAUCUGAAGGAGCGCGUUAAGUCAAUGCUUCAUAGAGCAGUGAUGUUGCUCUGAAACGCAGGUAGGUCGCAGAUCUGACC [Arg B SS t17] | 287 nM |
| AUCACAGUGAUGUUGUGAUAUGAUUCAGAUACCAGACUAGUGCUAGUCCCUUGGCAGCUGAACUCAGCAGCACCACUAGCACUCU [Theo A Ex t6] | 149 nM |
| GCUAGCAUGGCAGGAUAUAGCUAUAGGAGUGAUGUUCCUUGGUAGGUGAGUGAUGUUCACUACCAACUAGAAGGGCCAUGCUAGC | 135 nM |
| AGGUCACCAGGAAGGAGCGCCCUGACAGGUUGCUGCCGUGGGCAGUGAUGUUGCUCAGUCCGGCAGGUAGGUCGCCUGGUGACCU | 157 nM |
| ACACGUGUGGCAGGAUAUCGGGCUGUGGAUCGGCUGGUUACUUAUUCUCGACCAGUGAUGUUGGUACGAGAAGGGCUACCCAGAA [Cetebera] | 116 nM |
| AAGCAGUCACUCGAAACCAUCGAAGAUGGACGAGGACCGGUACGGCCGCCACUCGGAGUGAUGUUCCGAAGACUGCAAAAUAAAA | 370 nM |
| UGCAGUGAUGUUGCUAUUUGUCUUGAUUAACGAGGACCGGUACGGCCGCCACUCGAUUUCUCUCUAAUCGGGUAUGUUGUUUAGU [#20 K4 Tryptophan A Exclusion] | 119 nM |
| UAAGUAAGGGAUGAUACCAGAGAGUGAUGUUCUCAAGCGCUAUAGGAUAGCCUUAUCCACCUCCCUUGGCAGCAUACCCACUGGG [theeternabot_exclusion_KL_Theo_B_13] | 340 nM |
| UCCUGCAAUCAGCCACGAAAGUGGAUGGAUACCAGAGUCGAAAGACUCCCUUGGCAGCCAGUGAUGUUGGAAGCAGGUAAAUAAA | 1290 nM |
| UGUGUUGUUUUGAUGUUUGGUGUUGCAUGGCAGGAUAUCGUAGAGGCGAGAAGGGCUUUUGUGCGGUAUGAGUGAUGUUUGUAGG [iihymullin] | 398 nM |
| CGAGUGAUGUUCGUUCGUUUAUUUUUUUGACAGGAUAUGCGGAAACGCAGAAGGGUCACCUUUGAGUUAAAAGAAUUUACGUUAU [Ex FMN A 25] | 414 nM |
| AGAUGUCCCUGGGAUACCAGUCGGAGUCUCAGGGCUCGGAGUGAUGUUCUGGGAUGUUUCGGCCCUUGGCAGCCCUGGGACUCCC [#2 Exclusion - Theophylline B Attempt #26 (HarryS)] | 398 nM |
| AGUCCACUCUAAAGAGUGGACCUAAGGGAUACCAGUGAUGUUGGUCACCCUUGGCAGCCCUCUGUCAUCGAUAAAGAUGGCAGCA | 145 nM |
| GGAUAGGAUAGAGGAUAUGGUAUAUGCAAGAAUAACUUAUCGUGUAAAUCCAUAGGGAGUGAUGUUCCAGAAGGCUGUCCUAUCG [MatMod 11 - Jieux - Exclusion - FMN B] | 229 nM |
| GCUAUGGUUGGAAGGAGCGUUUAAUUACUAAUAAGAGUGAUGUUCGAUAGUAGGUAAUUGUAGCAGGUAGGUCGCCAACUAUAGC [KL-Arg B25] | 224 nM |
| CGAGUGAUGUUCGUUCGUUUAUUUCGUUGACAGGAUAUGCGGAAACGCAGAAGGGUCACCUUUGAGUUAACGGAAUUAACGUUAU [Ex FMN A 28] | 456 nM |
| UGUCAUUGGUCGGCCGCCACUAGACGGACAUAAGUCUGUCAAUAAAGAGUGAUGUUCUUAAAUAAUAGGACCGGGACCGAUGACU [TrypBS 28 #SwitchBubble #StaticStem] | 201 nM |
| UGUACCGAGUCAGGAUAUGGCGUCGAAAGACGAAAUGGAGUGAUGUUCCUUAUCUGCGAAAGCAGUCCAGAAGGGACUUGGUACU [FmnBS 27 #SwitchBubble #StaticStem #DoubleMagnetSystem] | 137 nM |
| GGAUAGGACAGAGGAUAUGGUAGUGAUGUUACCAAACUGGUUAUCAAUGUUAGAAAAUUGACAAAUCCAGAAGGCUGUCCUAUCG [KL-XFMN-B14] | 62 nM |

| Sequence | apparent KD of K4 kissing-loop reporter |
| --- | --- |
| AACCUGACGACGAGUGAUGUUCGAUGGGAAGGAGCGCGAAGAAAUGCAGGUAGGUCGCCCUAAGAGAGUGUAACGUCAGGAUUAU [1.)] | 191 nM |
| GGGAGUAGUGCGGCCGCCACUGUGAAAGAAGAAGAAUAUAGUGAUGUUAUAUAGGAAAUAAAGAAUAGGACCGGGCAUUAGAUUU [SSTRyptB.L] | 161 nM |
| GGAUAGGAUAGAGGAUAUGGGCUAGGCAAGGAUAACUUGUCUAGCAAAUCCAUGAGGAGUGAUGUUCCAGAAGGCUGUCCUAUCG [MatMod 1 - Jieux - Exclusion - FMN B] | 158 nM |
| GCAGAACGCAGUGAUGUUGCGAAAUCGGAAGGAGCGCGUGAAAACGCAGGUAGGUCGCCGACACAGGGAUUAUAUCCCUGUUUGC [Arginine A K4 17] | 133 nM |
| CCAUCGCUAUUCGAUACCAGUCUUCGUAGGAAACUACGUCUGCAAAGGAGUGAUGUUCCAGACCCUUGGCAGCGAAUAGUGAUGG [Theophylline B K4 4] | 799 nM |
| GUUACGCAUGGAAGGAGCGCGAAAAUUAAAUGUGAGUGAUGUUCACAAAUAAAUUAAAUAACGCAGGUAGGUCGCCAUGUGUAAC [Ex Arginine B K4 3] | 80.9 nM |
| GGAGGGAUCUCGGCCGCCACUCAUAAGAAAUGGGCCUCAGAAAUAUAGUGAUGUUAUAUAAAGAAGAGGACCGGGAGAAAGAAGG [ExTryptoB.D] | 131 nM |
| UGUCAUUGGUCUGAUACCAGUUGAUAAACUGGAGUGAUGUUCCAAUCGAGAUAACUCGACAACCCUUGGCAGCAGACCGAUGACU [TheoBS 15 #SwitchBubble 13 #StaticStem] | 168 nM |
| AAAGGCAAAGCCCGAGUGAUGUUCGACGAUACCAGCCUCGAUAGAGGCCCUUGGCAGCGUAAAUGAUCACAAAGCCAAGGAAUAA [#OpenEnded 2 #StaticStem] | 261 nM |
| GCCGUACGCAUGGAUACCAGCUAGACCGAGUGAUGUUCAGGUCUGAAUGCCGGUAUCAAGAGCCCUUGGCAGCCAUGCGUACGGC | 292 nM |
| UGAUACCAGACGGCCGCCACUCCUGCAGUCAAAGACUGCUAGGAAAUAUUCGUCCAGUGAUGUUGGAGGACCGGGUCUGGUAUCU [TrypBX 10 #SwitchBubble #Palindromic #StaticStem] | 894 nM |
| UGUCAUGGAAACAUGAACGUUGAUGUUCGACGAGGACCGGUACGGCCGCCACUCGAGUAAUAGUCAGUGAUGUUGACUUGUUUAA [KL-SSTryp-A form1 sub4] | 55.6 nM |
| AAUAAAAUCACGGCCGCCACUGAUGUUAAUAUUAGCAGUGAUGUUGCUAUGUCGUUUUUAUUUAACAGGACCGGGUGAAUAUUUA [JR_ExcTryptoB_Sub013] | 154 nM |
| UUUCUACCGGGAAGGAGCGUGAAUGAUAAUGGAUAUAGUGAUGUUAUAUAUACGAACGAAUCGCAGGUAGGUCGCCCGGAUCCCU [SSArgB.V] | 496 nM |
| AUUUGCUAGAAAGGAUAUAUUAGCUUGGUCACCGCGUCCGAUGGUUAAACUUCGUGAGUGAUGUUCAUAGAAGGUUCAGCCUCGA [theeternabot_exclusion_KL_FMN_B_20] | 124 nM |
| CUACUGAGUGAUGUUCAACAUAAUGUCGAUACCAGCACAUUUGCCUGCCCUUGGCAGCGACGCACCAGGACCUGAGAGUACUGGU [theeternabot_sameState_KL_Theo_A_13] | 410 nM |
| CCAUCGCUAUUCGAUACCAGCUCCUUAGUGAUGUUGAGGUUUUACCCACUGUAGGUGGGAAGCCCUUGGCAGCGAAUAGUGAUGG [Theophylline B K4 29] | 816 nM |
| CUUCGUAAAGGCCCAGUGAUGUUGGGCACUCGAGGACCGGUACGGCCGCCACUCGCUCCCUAAGUCGCGUGCGUGGGCCACCGCC [Anala] | 104 nM |
| UGACUGGACUGAAGGAGCGCUUAACUCCUAGUGAUGUUAGGGAAACGAGACAAAGUCUCGAAGCAGGUAGGUCGCAGUCUAGUCU | 194 nM |
| AAAAUAAAAGGUCACCCAGUGAUGUUGGAAGGAGCGUGCGAAAGCACAGGUAGGUCGCCAACCUAAAAGUGACCAGGGAAACCCA [#SwitchBubble 7 #K4Early] | 276 nM |
| UCACUUAAAAGAAAUAGAAAUUCUAGAGAUACCAGCGACACUCUUCGCCCUUGGCAGCUCAAGUGGGACCCAGUGAUGUUGGGCG [Xeceteza] | 324 nM |
| CUGACGCUGAUACGGUGGCCGGUGGUCGUGCGAGGACCGGUACGGCCGCCACUCGCAUGAGUGAUGUUCAUGUGUCGUCGUCGUC [#05 K4 Tryptophan A Exclusion] | 123 nM |
